Measured values: US20250295734A1, “ANTICOAGULANT PROTEINS AND THEIR USE FOR TREATING DISEASES ASSOCIATED WITH THE ACTIVATION OF NEUTROPHILS” (BIOXODES, priority 2018, published 2025)
Several values for one entry are separate records, joined by “and”; a condition that tells them apart may be missing. Equal values may be shown once. Entries after “also recorded” stand apart in the source; their conditions may differ.

Key:
[1] = Dissolution in NaCl 0.9% (solubility limit); assay type: physicochemical
Protocol: Ir-CPI was freshly prepared on the testing day by dissolution in NaCl 0.9% to reach the concentration of 50 mg/mL (corresponding to the maximal concentration to reach to avoid solubility issues).

FXIIa = target: T1, FXIIa (Homo sapiens, UniProt P00748); details: cited from earlier work
T1 construct: The resulting α-FXIIa has a heavy chain of 50 kDa, connected to a light chain of 28 kDa
T1 sequence (P00748 20-372 limits assumed): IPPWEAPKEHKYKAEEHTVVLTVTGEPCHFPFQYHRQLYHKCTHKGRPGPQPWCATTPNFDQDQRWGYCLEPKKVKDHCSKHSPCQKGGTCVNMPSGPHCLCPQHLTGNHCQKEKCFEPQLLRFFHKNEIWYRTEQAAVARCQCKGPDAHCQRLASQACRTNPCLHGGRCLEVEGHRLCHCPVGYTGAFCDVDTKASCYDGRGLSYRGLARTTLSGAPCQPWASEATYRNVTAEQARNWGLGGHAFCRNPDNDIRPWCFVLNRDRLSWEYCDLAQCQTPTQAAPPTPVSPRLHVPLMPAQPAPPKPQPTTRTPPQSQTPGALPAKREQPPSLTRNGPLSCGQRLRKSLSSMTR
T1 sequence (P00748 373-615 limits assumed): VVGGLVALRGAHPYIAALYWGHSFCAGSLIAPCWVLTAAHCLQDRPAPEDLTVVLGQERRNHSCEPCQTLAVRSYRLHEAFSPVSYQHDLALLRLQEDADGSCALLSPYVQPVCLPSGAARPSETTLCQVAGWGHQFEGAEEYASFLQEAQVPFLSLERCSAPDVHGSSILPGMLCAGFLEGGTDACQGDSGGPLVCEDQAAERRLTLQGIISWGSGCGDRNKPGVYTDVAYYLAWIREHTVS

[2] = system: neutrophils isolated from bone marrow of femurs of mice; assay: Neutrophil activation following incubation with TNFα (flow cytometry); assay type: cell-based, mice (C57BL/6)
Protocol: Neutrophils were isolated from the bone marrow of femurs of mice (C57BL/6) as previously described (Hu 2012), using FR-1-coupled magnetic beads (anti-Ly6G Microbead Kit, Miltenyi Biotec). For activation with TFNα, cells were harvested, centrifugated and incubated during 30 min with or without 2 ng/ml of TNFα in Hanks solution (Gibco). Next, neutrophils were incubated with Ir-CPI (0.65 or 2 μM) in Hanks solution (1 h at 37° C.). For activation with ATP, cells were harvested, centrifugated and incubated with ATP 10 μM and Ir-CPI (0.65 or 2 μM) in Hanks solution (1 h at 37° C.). After washing of cells, expression of CD11b, activated CD11b or Ly6G was assessed by flow cytometry (Beckman Coulter Gallios). Antibodies used for neutrophil identification and activation analyses were IRR IgG1-FITC (irrelevant antibody), anti-CD45-APC, anti-Ly6G-PE and anti-CD11b-FITC or Alexa Fluor 647 anti-activated CD11b-. Analysis of results was performed using the Kaluza software (Beckman Coulter). […]
Neutrophils isolated from bone marrow of femurs of mice were submitted to different in vitro experimental conditions (untreated control, priming with TNFα and/or incubation with Ir-CPI) to assess the effect of Ir-CPI on their activation status. The activation status was assessed by analyzing the percentage of CD11b expression at the surface of neutrophils (FIG. 16).

FXIa [3] = target: T2, FXIa (Homo sapiens, UniProt P03951); details: aPTT-based test, FXI deficient plasma; cited from earlier work
intrinsic pathway = details: in vitro; dose-dependent; cited from earlier work
human washed platelets = assay: In vitro platelet aggregation assay; assay type: cell-based
Protocol: Blood from healthy human donors, who had not taken anti-platelet agents within the 15 days prior to collection, was collected in citrated tubes and centrifuged for 13 min at 200 g. The platelet-rich plasma was collected and centrifuged for 13 min at 900 g in Tyrode buffer (138 mM NaCl, 2.9 mM KCl, 12 mM NaHCO3, 5.5 mM glucose, 1.8 mM CaCl2 and 0.4 mM MgCl2, pH 7.4) containing 0.2% BSA, apyrase 0.02 U/mL and PGI2 500 nM. Washed platelets were resuspended in the Tyrode/BSA 0.2%/apyrase/PGI2 solution and centrifuged at 900 g for 13 min. Platelets were resuspended in a Tyrode/BSA 0.2% solution at a concentration of 3.10^8 platelets/mL. Platelets were kept at 37° C. for 30 min in a solution containing […]. Next, platelets were incubated at 37° C. under agitation for 5 to 10 minutes in an aggregometer APACT 4004 with ADP (adenosine diphosphate), TRAP (Thrombin Receptor-Activating Peptide) and/or Ir-CPI.
The effect of Ir-CPI on platelet aggregation was assessed in vitro by using isolated human washed platelets (n=1).

FXIa [4] = target: T2, FXIa; details: cited from earlier work
[5] = Distribution and elimination of Ir-CPI in the mice; assay type: in vivo
Protocol: Ir-CPI was administered intravenously as a bolus (20.5 mg/kg) immediately followed by a continuous infusion at a rate of 3.7 mg/kg/h (see Table 1 below). Due to fast distribution and elimination of Ir-CPI in the mice (t1/2α=14 min and t1/2β=236 min), the combination of the bolus and the infusion was chosen in order to maintain a constant Ir-CPI concentration into the blood.

[6] = Ir-CPI 500 μg/100 μL injected alone and then TRAP 20 μM at about 230 sec
[7] = TRAP 20 μM + Ir-CPI 500 μg/100 μL injected together
[8] = agent alone (TRAP 20 μM, ADP 20 μM or Ir-CPI 500 μg/100 μL), n=1

T2 sequence (P03951 19-387 limits assumed): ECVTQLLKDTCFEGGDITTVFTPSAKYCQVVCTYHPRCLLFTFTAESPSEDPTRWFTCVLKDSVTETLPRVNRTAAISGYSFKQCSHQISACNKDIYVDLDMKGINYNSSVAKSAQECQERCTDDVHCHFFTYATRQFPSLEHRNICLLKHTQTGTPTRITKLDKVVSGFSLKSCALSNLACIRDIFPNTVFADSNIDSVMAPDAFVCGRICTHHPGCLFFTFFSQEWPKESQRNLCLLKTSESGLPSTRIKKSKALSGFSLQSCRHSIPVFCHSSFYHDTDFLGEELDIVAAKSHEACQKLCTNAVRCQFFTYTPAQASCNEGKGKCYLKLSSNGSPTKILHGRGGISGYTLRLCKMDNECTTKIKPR
T2 sequence (P03951 388-625 limits assumed): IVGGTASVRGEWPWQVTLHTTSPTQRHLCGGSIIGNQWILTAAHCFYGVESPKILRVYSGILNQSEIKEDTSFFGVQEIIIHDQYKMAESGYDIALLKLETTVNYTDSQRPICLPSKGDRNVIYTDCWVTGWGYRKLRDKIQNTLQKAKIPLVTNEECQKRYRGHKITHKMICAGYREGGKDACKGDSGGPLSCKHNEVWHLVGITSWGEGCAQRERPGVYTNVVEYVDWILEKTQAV

B1: Ir-CPI: Ixodes ricinus salivary gland polypeptide, contact phase inhibitor, MW=7660 Da; sequence SEQ ID NO: 1 or SEQ ID NO: 2 (protein)
chain: ANHKGRGRPAKCKLPPDDGPCRARIPSYYFDRKTKTCKEFMYGGCEGNENNFENITTCQEECRAKKV
In the case of B1, the “maximal concentration to reach to avoid solubility issues” value [1] is listed as 50 mg/mL, the “binding to FXIIa” value (FXIIa) is listed as “binds” and the “CD11b expressed at cell surface” value ([2]; neutrophils primed with TNFα, Ir-CPI 2 μM, *p<0.05) is listed as “significant reduction”. For the same molecule, the “expression of CD11b” value ([2]; untreated neutrophils, Ir-CPI 0.65 and 2 μM) was “no effect”, the FXIa clotting activity (FXIa [3]) was “inhibits” and the “activated Partial Thromboplastin Time (aPTT)” value (intrinsic pathway) was “prolong”. For the same molecule, the “Aggregation Latency” value (human washed platelets; [6]) was 231.2 s, the “Aggregation Max” value (human washed platelets; [6]) was 73.5% and the “Aggregation Slope” value (human washed platelets; [6]) was 31.1 %/min. The “activation of platelet aggregation” value (human washed platelets; Ir-CPI alone added to washed platelets) was “did not activate platelet aggregation”, the “effect on TRAP-induced platelet aggregation” value (human washed platelets; Ir-CPI and TRAP, compared to TRAP alone) was “did not significantly modify platelet aggregation; also recorded: does not inhibit platelet aggregation” and the “Aggregation Latency” value (human washed platelets; [7]) was 98.6 s. For the same molecule, the “Aggregation Max” value (human washed platelets; [7]) was 71.7% and 71.8%, the “Aggregation Slope” value (human washed platelets; [7]) was 35.1 %/min and the “Aggregation Latency” value (human washed platelets; [8]) was 70.0 s. For the same molecule, the “Aggregation Max” value (human washed platelets; [8]) was 4.1%, the “Aggregation Slope” value (human washed platelets; [8]) was 16.2 %/min and the “binding to FXIa” value (FXIa [4]) was “binds”. The t1/2α [5] was 0.233 h and the t1/2β [5] was 3.93 h.
